Patent US20170174769A1 (Regeneron, published 2017)
One block for each binder: values may come before it.

Experiments:
[1] = target: M. fascicularis KLB and human FGFR1c co-expressed on HEK293/MfKLB/hFGFR1c/SRE-Luc cells (M. fascicularis; human, UniProt A0A2K5WB58 1-1044); experiment: cell-based or functional assay
[2] = target: T1, human KLB and human FGFR1c co-expressed on HEK293/hKLB/hFGFR1c/SRE-luc cells (human, UniProt Q86Z14 1-1044; P11362 22-822); experiment: cell-based or functional assay
[3] = target: T2, extracellular domain of human KLB expressed with C-terminal HA and hexahistidine tags (human, UniProt Q86Z14 1-996); experiment: SPR, mAb captured, 37 C
T2 construct: also called hKLB-HA-6His; hKLB-HA-6his
T2 sequence: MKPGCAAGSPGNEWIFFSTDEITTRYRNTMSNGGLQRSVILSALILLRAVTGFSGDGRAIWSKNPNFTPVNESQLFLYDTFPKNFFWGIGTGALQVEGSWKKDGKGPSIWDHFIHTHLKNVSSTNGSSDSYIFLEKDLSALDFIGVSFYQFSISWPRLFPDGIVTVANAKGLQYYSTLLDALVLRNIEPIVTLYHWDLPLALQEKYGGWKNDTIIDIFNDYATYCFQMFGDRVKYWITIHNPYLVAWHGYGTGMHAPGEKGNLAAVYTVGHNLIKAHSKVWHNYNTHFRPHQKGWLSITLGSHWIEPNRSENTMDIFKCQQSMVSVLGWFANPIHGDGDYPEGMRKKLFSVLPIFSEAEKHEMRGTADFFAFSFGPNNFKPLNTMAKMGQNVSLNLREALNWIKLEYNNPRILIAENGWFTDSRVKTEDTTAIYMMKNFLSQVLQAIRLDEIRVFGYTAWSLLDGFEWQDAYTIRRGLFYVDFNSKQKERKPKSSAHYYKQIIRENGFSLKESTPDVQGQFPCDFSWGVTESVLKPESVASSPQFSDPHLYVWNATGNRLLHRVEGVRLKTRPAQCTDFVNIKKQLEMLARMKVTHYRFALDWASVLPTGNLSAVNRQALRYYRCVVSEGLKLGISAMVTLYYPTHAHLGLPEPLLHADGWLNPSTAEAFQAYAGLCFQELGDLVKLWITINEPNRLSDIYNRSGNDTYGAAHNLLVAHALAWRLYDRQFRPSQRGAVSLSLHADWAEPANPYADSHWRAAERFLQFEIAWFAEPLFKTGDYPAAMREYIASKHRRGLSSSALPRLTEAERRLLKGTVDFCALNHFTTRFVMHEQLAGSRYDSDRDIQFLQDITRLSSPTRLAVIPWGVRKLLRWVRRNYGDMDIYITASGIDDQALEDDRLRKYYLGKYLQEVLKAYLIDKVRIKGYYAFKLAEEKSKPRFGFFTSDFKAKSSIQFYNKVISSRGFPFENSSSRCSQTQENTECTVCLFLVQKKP
Protocol: (§1) Equilibrium dissociation constants (KD values) for human KLB or human FGFR1c binding to purified anti-KLB/FGFR1c monoclonal antibodies were determined using a real-time surface plasmon resonance biosensor using a Biacore T-200 or 4000 instrument. The Biacore sensor surface was derivatized by amine coupling with either a polyclonal rabbit anti-mouse antibody (GE, # BR-1008-38) or with a monoclonal mouse anti-human Fc antibody (GE, # BR-1008-39) to capture anti-KLB/FGFR1c monoclonal antibodies expressed with either a mouse Fc or a human Fc, respectively. All Biacore binding studies were performed in a buffer composed of 0.01M HEPES pH 7.4, 0.15M NaCl, 3mM EDTA, 0.05% v/v Surfactant P20 (HBST running buffer). […] Association of hKLB-HA-6His or hFGFR1c-V5-6His to the captured monoclonal antibody was monitored for 3.5 to 4 minutes and the dissociation of hKLB-HA-6His or hFGFR1c-V5-6His in HBST running buffer was monitored for 8-12 minutes. All the binding kinetics experiments were performed at 25° C. or 37° C. Kinetic association (kₐ) and dissociation (kd) rate constants were determined by fitting the real-time sensorgrams to a 1:1 binding model using Scrubber 2.0c curve fitting software. Binding dissociation equilibrium constants (KD) and dissociative half-lives (t½) were calculated from the kinetic rate constants as: […]

[4] = target: T3, extracellular domain of human FGFR1c expressed with C-terminal V5 and hexahistidine tags (human, UniProt P11362 22-376); experiment: SPR, mAb captured, 37 C
T3 construct: also called hFGFR1c-V5-6His
T3 sequence: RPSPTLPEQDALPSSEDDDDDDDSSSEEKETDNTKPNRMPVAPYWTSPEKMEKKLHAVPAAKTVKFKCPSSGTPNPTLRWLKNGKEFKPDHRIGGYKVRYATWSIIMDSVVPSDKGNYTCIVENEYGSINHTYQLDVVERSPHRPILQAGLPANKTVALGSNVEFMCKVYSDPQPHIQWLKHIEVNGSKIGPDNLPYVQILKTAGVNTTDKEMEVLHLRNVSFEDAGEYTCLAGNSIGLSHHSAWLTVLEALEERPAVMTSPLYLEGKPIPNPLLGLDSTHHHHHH
Protocol: as §1

[5] = target: T1, human KLB and human FGFR1c co-expressed …; experiment: cell-based or functional assay; remark: listed apart in the source
[6] = target: T2, extracellular domain of human KLB …; experiment: SPR, mAb captured, 25 C
Protocol: as §1

[7] = target: T3, extracellular domain of human FGFR1c …; experiment: SPR, mAb captured, 25 C
Protocol: as §1

B1: H1M8115N (antibody, V domains shown)
VH: QVQLVQSGAEVKKPGSSVKVSCKASGGTFSTYEISWVRQAPGQGLEWMGGIIPVFGTTHYAQKFQDSVTITTDESTGTAFMELSSLKSEDTAVYYCARGGAGGDNWGQGTLVTVSS
VL: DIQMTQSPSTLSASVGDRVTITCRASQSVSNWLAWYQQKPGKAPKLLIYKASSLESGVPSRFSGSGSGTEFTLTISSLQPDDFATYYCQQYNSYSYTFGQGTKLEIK
notes: H1M Fc prefix (mouse Fc)
IC50, inhibition of 10 nM mfFGF21 [1]: 0.03 nM
Maximum Inhibition (%) of 10 nM mfFGF21 [1]: 47%
EC50, SRE-luc activation without ligand [2]: 0.053 nM
Maximum Activation (%) without ligand [2]: 1%
20 nM hKLB-HA-6His Bind (RU) [3]: 118 RU
Kd [3]: 0.206 nM
koff [3]: 0.000144 s⁻¹
kon [3]: 699000 M⁻¹ s⁻¹
t1/2 [3]: 1.34 h
180 nM hFGFR1c-V5-6His Bind (RU) [4]: 0.4 RU
IC50, inhibition of 1 nM hFGF21 [5]: 0.09 nM
Maximum Inhibition (%) of 1 nM hFGF21 [5]: 65%
20 nM hKLB-HA-6His Bind (RU) [6]: 77.6 RU
Kd [6]: 0.11 nM
koff [6]: 5.02e-05 s⁻¹
kon [6]: 455000 M⁻¹ s⁻¹
t1/2 [6]: 3.83 h
180 nM hFGFR1c-V5-6His Bind (RU) [7]: -1.8 RU

B3: H2aM8109N (antibody, V domains shown)
VH: QVQVVESGGGVVQPGRSLRLSCAASGFTFSSYGLHWVRQAPGKGLEWVAVIWHDGSHKYYADSVKGRFTISRDNSKNTLYLQMNSLRAEDTAVYYCARDGIPVAEDYYFYGMDVWGQGTTVTVSS
VL: DIQMTQSPSSLSASVGDRVTITCRASQGIRNDLGWYQQKPGKAPKRLIYAASSLQSGVPSRFSGSGSGTEFTLTISSLQPEDFAIYYCLQHNSLTFGGGTKVEIK
notes: mouse IgG2 Fc (H2aM prefix)
IC50, inhibition of 10 nM mfFGF21 [1]: 0.19 nM
Maximum Inhibition (%) of 10 nM mfFGF21 [1]: 32%
EC50, SRE-luc activation without ligand [2]: 3.3 nM
Maximum Activation (%) without ligand [2]: 0.5%
20 nM hKLB-HA-6His Bind (RU) [3]: 36.8 RU
Kd [3]: 6.2 nM
koff [3]: 0.00131 s⁻¹
kon [3]: 211000 M⁻¹ s⁻¹
t1/2 [3]: 0.147 h
180 nM hFGFR1c-V5-6His Bind (RU) [4]: 0.7 RU
IC50, inhibition of 1 nM hFGF21 [5]: 0.033 nM
Maximum Inhibition (%) of 1 nM hFGF21 [5]: 23%
20 nM hKLB-HA-6His Bind (RU) [6]: 21.3 RU
Kd [6]: 4.44 nM
koff [6]: 0.000449 s⁻¹
kon [6]: 101000 M⁻¹ s⁻¹
t1/2 [6]: 0.428 h
180 nM hFGFR1c-V5-6His Bind (RU) [7]: -0.7 RU

B4: H4H8852P (antibody, V domains shown)
VH: QVQLQESGPGLVKPSETLSLTCTVSGGSISSYYWSWIRQPPGKGLEWIGYIYSSGIIKYNPSLKSRVTISADTSKNQFSLKLSSVTAADTAVYYCARHGIFGVMEYFQRWGQGTLVTVSS
VL: DIQMTQSPSSLSASIGDRVTITCQASQDIGNFLNWYQQKPGKAPTLLIYDASNMETGVPSRFSGSGSGTYFTFTISSLQPEDVATYYCQQYDNLPLTFGGGTKVEIK
notes: human IgG4 Fc (H4H prefix)
EC50, SRE-luc activation without ligand [1]: 0.046 nM
IC50, inhibition of 10 nM mfFGF21 [1]: 0.47 nM
Maximum Activation (%) without ligand [1]: 5%
Maximum Inhibition (%) of 10 nM mfFGF21 [1]: 101%
EC50, SRE-luc activation without ligand [2]: 0.21 nM
Maximum Activation (%) without ligand [2]: 5%
20 nM hKLB-HA-6His Bind (RU) [3]: 5.1 RU
180 nM hFGFR1c-V5-6His Bind (RU) [4]: 1 RU
IC50, inhibition of 1 nM hFGF21 [5]: 0.38 nM
Maximum Inhibition (%) of 1 nM hFGF21 [5]: 101%
20 nM hKLB-HA-6His Bind (RU) [6]: -0.2 RU
180 nM hFGFR1c-V5-6His Bind (RU) [7]: 0 RU
binding result [7]: no binding (tested: 180 nM)

B6: H2aM8093N (antibody, V domains shown)
VH: QVQLVQSGAEVKRPGSSVKVSCKASGDTFSTYAISWVRQAPGQGLEWMGGIIPVFGTTNYAQKFQDRVTITTDESTRTAYMELSSLRSEDTAVYYCAGIAGPDYWGQGTLVTVSS
VL: DIQMTQSPSSLSASVGDRVTITCRASQGIRNYLAWFQQKPGKAPKSLIYLATSLQSGVPSKFSGSGSGTDFTLTISSLQPEDFATYYCQQYYSYPWTFGQGTKVEIK
notes: mouse IgG2 Fc (H2aM prefix)
IC50, inhibition of 10 nM mfFGF21 [1]: 0.026 nM
Maximum Inhibition (%) of 10 nM mfFGF21 [1]: 46%
EC50, SRE-luc activation without ligand [2]: 0.068 nM
Maximum Activation (%) without ligand [2]: 1%
20 nM hKLB-HA-6His Bind (RU) [3]: 211 RU
Kd [3]: 0.222 nM
koff [3]: 0.00018 s⁻¹
kon [3]: 812000 M⁻¹ s⁻¹
t1/2 [3]: 1.07 h
180 nM hFGFR1c-V5-6His Bind (RU) [4]: 0.6 RU
IC50, inhibition of 1 nM hFGF21 [5]: 0.067 nM
Maximum Inhibition (%) of 1 nM hFGF21 [5]: 65%
20 nM hKLB-HA-6His Bind (RU) [6]: 147 RU
Kd [6]: 0.218 nM
koff [6]: 9.8e-05 s⁻¹
kon [6]: 449000 M⁻¹ s⁻¹
t1/2 [6]: 1.96 h
180 nM hFGFR1c-V5-6His Bind (RU) [7]: -1.2 RU

Now from value to binder:

IC50, inhibition of 10 nM mfFGF21 [1]: 0.089 nM
Maximum Inhibition (%) of 10 nM mfFGF21 [1]: 51%
EC50, SRE-luc activation without ligand [2]: 0.12 nM
Maximum Activation (%) without ligand [2]: 1%
20 nM hKLB-HA-6His Bind (RU) [3]: 372 RU
Kd [3]: 0.401 nM
koff [3]: 0.000128 s⁻¹
kon [3]: 320000 M⁻¹ s⁻¹
t1/2 [3]: 1.5 h
180 nM hFGFR1c-V5-6His Bind (RU) [4]: 0.1 RU
IC50, inhibition of 1 nM hFGF21 [5]: 0.08 nM
Maximum Inhibition (%) of 1 nM hFGF21 [5]: 51%
20 nM hKLB-HA-6His Bind (RU) [6]: 63 RU
Kd [6]: 0.367 nM
koff [6]: 0.000128 s⁻¹
kon [6]: 350000 M⁻¹ s⁻¹
t1/2 [6]: 1.5 h
180 nM hFGFR1c-V5-6His Bind (RU) [7]: 0.2 RU
binding result [7]: no binding (tested: 180 nM)
B2: H4H8837P (antibody, V domains shown)
VH: QVQLVESGGGVVQPGRSLRLSCAASGFTFNSYAMHWVRQAPGMGLEWVAVISSDGSNKYYADSVRGRFTVSRDNSKNTLYLQMNSLRSEDTAVYYCAKDGRGYSSFSHFGMDVWGQGTTVTVSS
VL: DIQMTQSPSTLSASVGDRVTITCRASQSIGSWLAWYQQKPGKAPKLLIYKTSSLESGVPSRFSGSGSGTEFTLTISSLQPDDFASYYCQQYNSYSFGQGTKVEIK
notes: human IgG4 Fc (H4H prefix)

EC50, SRE-luc activation without ligand [1]: 0.18 nM
IC50, inhibition of 10 nM mfFGF21 [1]: 0.79 nM
Maximum Activation (%) without ligand [1]: 5%
Maximum Inhibition (%) of 10 nM mfFGF21 [1]: 91%
EC50, SRE-luc activation without ligand [2]: 0.3 nM
Maximum Activation (%) without ligand [2]: 6%
20 nM hKLB-HA-6His Bind (RU) [3]: -0.5 RU
180 nM hFGFR1c-V5-6His Bind (RU) [4]: 0.3 RU
IC50, inhibition of 1 nM hFGF21 [5]: 0.65 nM
Maximum Inhibition (%) of 1 nM hFGF21 [5]: 91%
20 nM hKLB-HA-6His Bind (RU) [6]: -0.4 RU
180 nM hFGFR1c-V5-6His Bind (RU) [7]: 0.1 RU
binding result [7]: no binding (tested: 180 nM)
B5: H4H8856P (antibody, V domains shown)
VH: QVQLQESGPGLVKPSETLSLTCTVSGGSISSYYWSWIRQPPGKGLEWIAYIYYSGITKYNPSLKSRVTISADTSKNQFSLKLSSVTAADTAVYYCARHGIFGVMEYFQRWGQGTLVTVSS
VL: DIQMTQSPSSLSASIGDRVTITCQASQDISNFLNWYQQKPGKAPTLLIYDVSNMETGVPSRFSGSGYGTDFTLTISSLKPEDIATYYCQQYDNIPLTFGGGTKVEIK
notes: human IgG4 Fc (H4H prefix)
